Tests used:
Conditions in all cases: protein: recombinant; single strand
eIF4A1 [1] = target: T1, eIF4A1 (UniProt P60842 1-406); assay: fluorescence polarization, protein titration; 50 uM (-)-7, 1 mM ATP; EC50 for complex formation, range for all three compounds; FP: 14.4 mM HEPES-KOH pH 8, 108 mM NaCl, 1 mM MgCl2, 14.4% glycerol, 0.1% DMSO, 2 mM DTT, 1 mM ATP, 10 nM probe, room temperature, 10 min
eIF4A1 [2] = target: T1, eIF4A1; assay: fluorescence polarization, protein titration; 50 uM (-)-5, 1 mM ATP; EC50 for complex formation, range for all three compounds; FP: 14.4 mM HEPES-KOH pH 8, 108 mM NaCl, 1 mM MgCl2, 14.4% glycerol, 0.1% DMSO, 2 mM DTT, 1 mM ATP, 10 nM probe, room temperature, 10 min
eIF4A1 [3] = target: T1, eIF4A1; assay: fluorescence polarization, protein titration; 50 uM (-)-20, 1 mM ATP; EC50 for complex formation, range for all three compounds; FP: 14.4 mM HEPES-KOH pH 8, 108 mM NaCl, 1 mM MgCl2, 14.4% glycerol, 0.1% DMSO, 2 mM DTT, 1 mM ATP, 10 nM probe, room temperature, 10 min

Measured: apparent K (half saturation)

T1 sequence (P60842 whole entry): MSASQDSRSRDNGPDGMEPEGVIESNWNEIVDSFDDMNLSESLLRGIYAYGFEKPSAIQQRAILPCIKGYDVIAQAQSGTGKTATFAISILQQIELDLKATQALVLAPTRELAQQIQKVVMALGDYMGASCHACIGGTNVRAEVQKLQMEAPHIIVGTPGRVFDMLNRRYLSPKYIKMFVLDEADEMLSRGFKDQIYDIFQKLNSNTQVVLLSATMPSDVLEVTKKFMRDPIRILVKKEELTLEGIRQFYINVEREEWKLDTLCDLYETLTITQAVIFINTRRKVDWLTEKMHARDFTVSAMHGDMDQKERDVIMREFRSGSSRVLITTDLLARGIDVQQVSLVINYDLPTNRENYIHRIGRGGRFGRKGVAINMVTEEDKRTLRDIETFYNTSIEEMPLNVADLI

AGAGAGAGAGAGAGAG (ssRNA) [FAM-r(AG)8]
~245 nM: all assays above
